Measured values published in US20230395193A1 (priority 2020, published 2023).

B1: E-Q8WY22 (protein, UniProt Q8WY22 1-251, looked up)
BRI3-binding protein: MGARASGGPLARAGLLLLLLLLLLLGLLAPGAQGARGRGGAEKNSYRRTVNTFSQSVSSLFGEDNVRAAQKFLARLTERFVLGVDMFVETLWKVWTELLDVLGLDVSNLSQYFSPASVSSSPARALLLVGVVLLAYWFLSLTLGFTFSVLHVVFGRFFWIVRVVLFSMSCVYILHKYEGEPENAVLPLCFVVAVYFMTGPMGFYWRSSPSGPSNPSNPSVEEKLEHLEKQVRLLNIRLNRVLESLDRSKDK
modifications: prey of SARS-CoV-2 E
B2: E-Q9BTV4 (protein, UniProt Q9BTV4 2-400, looked up)
Transmembrane protein 43: AANYSSTSTRREHVKVKTSSQPGFLERLSETSGGMFVGLMAFLLSFYLIFTNEGRALKTATSLAEGLSLVVSPDSIHSVAPENEGRLVHIIGALRTSKLLSDPNYGVHLPAVKLRRHVEMYQWVETEESREYTEDGQVKKETRYSYNTEWRSEIINSKNFDREIGHKNPSAMAVESFMATAPFVQIGRFFLSSGLIDKVDNFKSLSLSKLEDPHVDIIRRGDFFYHSENPKYPEVGDLRVSFSYAGLSGDDPDLGPAHVVTVIARQRGDQLVPFSTKSGDTLLLLHHGDFSAEEVFHRELRSNSMKTWGLRAAGWMAMFMGLNLMTRILYTLVDWFPVFRDLVNIGLKAFAFCVATSLTLLTVAAGWLFYRPLWALLIAGLALVPILVARTRVPAKKLE
B3: E-Q6UX04 (protein, UniProt Q6UX04 2-472, looked up)
Spliceosome-associated …: SNIYIQEPPTNGKVLLKTTAGDIDIELWSKEAPKACRNFIQLCLEAYYDNTIFHRVVPGFIVQGGDPTGTGSGGESIYGAPFKDEFHSRLRFNRRGLVAMANAGSHDNGSQFFFTLGRADELNNKHTIFGKVTGDTVYNMLRLSEVDIDDDERPHNPHKIKSCEVLFNPFDDIIPREIKRLKKEKPEEEVKKLKPKGTKNFSLLSFGEEAEEEEEEVNRVSQSMKGKSKSSHDLLKDDPHLSSVPVVESEKGDAPDLVDDGEDESAEHDEYIDGDEKNLMRERIAKKLKKDTSANVKSAGEGEVEKKSVSRSEELRKEARQLKRELLAAKQKKVENAAKQAEKRSEEEEAPPDGAVAEYRREKQKYEALRKQQSKKGTSREDQTLALLNQFKSKLTQAIAETPENDIPETEVEDDEGWMSHVLQFEDKSRKVKDASMQDSDTFEIYDPRNPVNKRRREESKKLMREKKERR
modifications: interactor of E protein
B4: E-Q8IWA5 (protein, UniProt Q8IWA5 1-706, looked up)
Choline transporter-like …: MGDERPHYYGKHGTPQKYDPTFKGPIYNRGCTDIICCVFLLLAIVGYVAVGIIAWTHGDPRKVIYPTDSRGEFCGQKGTKNENKPYLFYFNIVKCASPLVLLEFQCPTPQICVEKCPDRYLTYLNARSSRDFEYYKQFCVPGFKNNKGVAEVLQDGDCPAVLIPSKPLARRCFPAIHAYKGVLMVGNETTYEDGHGSRKNITDLVEGAKKANGVLEARQLAMRIFEDYTVSWYWIIIGLVIAMAMSLLFIILLRFLAGIMVWVMIIMVILVLGYGIFHCYMEYSRLRGEAGSDVSLVDLGFQTDFRVYLHLRQTWLAFMIILSILEVIIILLLIFLRKRILIAIALIKEASRAVGYVMCSLLYPLVTFFLLCLCIAYWASTAVFLSTSNEAVYKIFDDSPCPFTAKTCNPETFPSSNESRQCPNARCQFAFYGGESGYHRALLGLQIFNAFMFFWLANFVLALGQVTLAGAFASYYWALRKPDDLPAFPLFSAFGRALRYHTGSLAFGALILAIVQIIRVILEYLDQRLKAAENKFAKCLMTCLKCCFWCLEKFIKFLNRNAYIMIAIYGTNFCTSARNAFFLLMRNIIRVAVLDKVTDFLFLLGKLLIVGSVGILAFFFFTHRIRIVQDTAPPLNYYWVPILTVIVGSYLIAHGFFSVYGMCVDTLFLCFLEDLERNDGSAERPYFMSSTLKKLLNKTNKKAAES

System: SARS-CoV-1, MERS-CoV and SARS-CoV-2 proteins in HEK293T cells
Parameters: species or system human

Molecule	MIST_MERS	MIST_SARS1	MIST_SARS2	Saint_MERS	Saint_SARS1	Saint_SARS2
B1	0.9912	0	0	1	0	0
B2	0.8753	0	0	1	0	0
B3	0.03892	0.6535	0.8931	0	0.98	0.66
B4	0	0	0.9503	0	0	0.98
